In patent US20240410901A1:
Positions count from the first letter of the chain named. Names and notes keep the numbering of the source. Each block holds one molecule with its values, some of them ahead of it.

Experiments:
[1] = biological target: actin filaments of D. melanogaster S2 cells (lamellipodial actin ring, patches, filopodia) (D. melanogaster); test: TIRF imaging of a fixed S2 cell expressing mCherry-Lifeact stained with Alexa Fluor 488 phalloidin; panel a, upper cell
[2] = biological target: actin filaments of D. melanogaster S2 cells (lamellipodial actin ring, patches, filopodia) (D. melanogaster); test: TIRF imaging of S2 cells before and after blue light
[3] = biological target: actin filaments of D. melanogaster S2 cells (lamellipodial actin ring, patches, filopodia) (D. melanogaster); test: TIRF imaging of a fixed S2 cell expressing mCherry-Lifeact stained with Alexa Fluor 488 phalloidin; panel a, lower cell
[4] = biological target: F-actin (G-actin polymerized, filaments stabilized with phalloidin); test: cosedimentation with 0.5 µM phalloidin-stabilized F-actin, SDS-PAGE of the pellet, hyperbolic fit
[5] = biological target: actin filaments of D. melanogaster S2 cells (lamellipodial actin ring, patches, filopodia) (D. melanogaster); test: TIRF imaging of a live S2 cell; actin labeling ratio over time, panel B, recovery after the 2nd blue-light excitation
[6] = biological target: actin filaments of D. melanogaster S2 cells (lamellipodial actin ring, patches, filopodia) (D. melanogaster); test: TIRF imaging of a live S2 cell; actin labeling ratio over time, panel B, recovery after the 1st blue-light excitation (black exponential fit drawn on this one)
[7] = biological target: actin filaments of D. melanogaster S2 cells (lamellipodial actin ring, patches, filopodia) (D. melanogaster); test: TIRF image of an S2 cell before blue-light excitation, panel a; outer and inner rings hand traced
[8] = biological target: actin filaments of D. melanogaster S2 cells (lamellipodial actin ring, patches, filopodia) (D. melanogaster); test: TIRF image of the same S2 cell after blue-light excitation, panel b; outer and inner rings hand traced
[9] = biological target: actin filaments of D. melanogaster S2 cells (lamellipodial actin ring, patches, filopodia) (D. melanogaster); test: TIRF imaging of a repeatedly excited S2 cell; actin labeling ratio over time, panel f, recovery after the 2nd excitation
[10] = biological target: actin filaments of D. melanogaster S2 cells (lamellipodial actin ring, patches, filopodia) (D. melanogaster); test: cell-based or functional assay
[11] = biological target: actin filaments of D. melanogaster S2 cells (lamellipodial actin ring, patches, filopodia) (D. melanogaster); test: TIRF imaging of a live S2 cell; actin labeling ratio over time, panel B, recovery after the 3rd blue-light excitation
[12] = biological target: actin filaments of D. melanogaster S2 cells (lamellipodial actin ring, patches, filopodia) (D. melanogaster); test: TIRF imaging of a live S2 cell; actin labeling ratio over time, panel B, recovery after the 4th blue-light excitation
[13] = biological target: actin filaments of D. melanogaster S2 cells (lamellipodial actin ring, patches, filopodia) (D. melanogaster); test: TIRF imaging of a repeatedly excited S2 cell; actin labeling ratio over time, panel f, recovery after the 4th excitation
[14] = biological target: actin filaments of D. melanogaster S2 cells (lamellipodial actin ring, patches, filopodia) (D. melanogaster); test: TIRF images of an S2 cell before and after blue-light excitation, printed in panel b
[15] = biological target: actin filaments of D. melanogaster S2 cells (lamellipodial actin ring, patches, filopodia) (D. melanogaster); test: TIRF imaging of an S2 cell expressing mCherry-LILAC, fixed under blue light and stained with Alexa Fluor 488 phalloidin; panel b, lower cell
[16] = biological target: actin filaments of D. melanogaster S2 cells (lamellipodial actin ring, patches, filopodia) (D. melanogaster); test: TIRF imaging of a repeatedly excited S2 cell; actin labeling ratio over time, panel f, recovery after the 3rd excitation
[17] = biological target: actin filaments of D. melanogaster S2 cells (lamellipodial actin ring, patches, filopodia) (D. melanogaster); test: TIRF imaging of an S2 cell expressing mCherry-LILAC, fixed under blue light and stained with Alexa Fluor 488 phalloidin; panel b, upper cell
[18] = biological target: actin filaments of D. melanogaster S2 cells (lamellipodial actin ring, patches, filopodia) (D. melanogaster); test: TIRF imaging of a repeatedly excited S2 cell; actin labeling ratio over time, panel f, recovery after the 1st excitation (black exponential fit)

- r (Pearson's correlation coefficient with the phalloidin image) [1]: 0.83
- switching ratio (fold change of the actin labeling ratio, post/pre-excitation) [2]: 1
- r (Pearson's correlation coefficient with the phalloidin image) [3]: 0.89
Molecule: mCherry-Lifeact expressed in Drosophila S2 cells (pMT-mCherry-Lifeact vector) (from UniProt Q08641 1-17)

- Kd [4]: 3.9 µM
Molecule: mCherry-Lifeact, expressed in E. coli and purified (6×His-mCherry-TEV-Lifeact from the pET21-mCherry-Lifeact vector) (from UniProt Q08641 1-17)

- Kd [4]: 3.4 µM
B1: mCherry-LILAC I539E, expressed in E. coli and purified (6×His-mCherry-TEV-LILAC with I539E, pET21) (designed binder, not shown: large carriers; small tags and cut ends)
chain: HHHHHHGEFLATTLERIEKNFVITDPRLPDNPIIFASDSFLQLTEYSREEILGRNCRFLQGPETDRATVRKIRDAIDNQTEVTVQLINYTKSGKKFWNLFHLQPMRDQKGDVQYFIGVQLDGTEHVRDAAEREAVMLAKKTAEEEDEAAMGVADLIKKFESISKEE

- τ (time constant of the decay of the actin labeling ratio after excitation) [5]: 73 s
- τ (time constant of the decay of the actin labeling ratio after excitation) [6]: 71 s
- ALR (actin labeling ratio, intensity outer / intensity inner) [7]: 0.39
- ALR (actin labeling ratio, intensity outer / intensity inner) [8]: 0.79
- τ (time constant of the decay of the actin labeling ratio after excitation) [9]: 73 s
- dark state recovery time constant, from actin labeling ratio traces [10]: 63 s
- τ (time constant of the decay of the actin labeling ratio after excitation) [11]: 61 s
- τ (time constant of the decay of the actin labeling ratio after excitation) [12]: 59 s
- τ (time constant of the decay of the actin labeling ratio after excitation) [13]: 59 s
- ASR (actin switching ratio, ALR post / ALR pre) [14]: 2.02
- switching ratio (fold change of the actin labeling ratio, post/pre-excitation) [2]: 1.6
- r (Pearson's correlation coefficient with the phalloidin image) [15]: 0.62
- τ (time constant of the decay of the actin labeling ratio after excitation) [16]: 61 s
- r (Pearson's correlation coefficient with the phalloidin image) [17]: 0.6
- τ (time constant of the decay of the actin labeling ratio after excitation) [18]: 71 s
B2: mCherry-LILAC expressed in Drosophila S2 cells (pMT vector) (designed binder, not shown: large carriers)
chain: GGSGGSGGSGEFLATTLERIEKNFVITDPRLPDNPIIFASDSFLQLTEYSREEILGRNCRFLQGPETDRATVRKIRDAIDNQTEVTVQLINYTKSGKKFWNLFHLQPMRDQKGDVQYFIGVQLDGTEHVRDAAEREAVMLAKKTAEEIDEAAMGVADLIKKFESISKEE

- dark state recovery time constant, from actin labeling ratio traces [10]: 50 s
B3: mCherry-LILAC T406A/T407A expressed in Drosophila S2 cells (pMT vector) (designed binder, not shown: large carriers)
chain: B2 chain with T15A, T16A

- switching ratio (fold change of the actin labeling ratio, post/pre-excitation) [2]: 1
B4: mCherry-LILAC I539E expressed in Drosophila S2 cells (pMT vector) (designed binder, not shown: large carriers)
chain: B2 chain with I148E
